Data as given in patent US11072647B2, “TGF-receptor II isoform, fusion peptide, methods of treatment and methods in vitro” (Onsejo Nacional DE Investigation Cientiticay Tecnica, priority 2013, dated 2021).

Test system: hASCs cells
Assay: Cytokine Array G5 of supernatants of lentivirally transduced hASCs
Assay type: cell-based, human
Set-up: key to IL-6* secreted by hASC / IGFBP-4 secreted by hASC / IL-7 secreted by hASC / LIF secreted by hASC / TNF-α secreted by hASC / FLT3-L secreted by hASC / SCF secreted by hASC / LIGHT secreted by hASC / IL-3 secreted by hASC / Oncostatin M secreted by hASC / FGF-7 secreted by hASC / FGF-9 secreted by hASC / Angiogenin secreted by hASC / BDNF secreted by hASC / NT-3 secreted by hASC / EGF secreted by hASC / NT-4 secreted by hASC / PIGF secreted by hASC / TIMP-1 secreted by hASC / GRO secreted by hASC / TIMP-2 secreted by hASC / CXCL1 (GROα) secreted by hASC / INF-γ secreted by hASC / CXCL6 (GCP-2) secreted by hASC / IL-2 secreted by hASC / CXCL9 (MIG) secreted by hASC / CXCL10 (IP-10) secreted by hASC / Osteopontin secreted by hASC / CXCL12 (SDF-1) secreted by hASC / Osteoprotegerin secreted by hASC / CXCL13 (BLC) secreted by hASC / CCL1 (I-309) secreted by hASC / Leptin secreted by hASC / CCL2 (MCP-1) secreted by hASC / CCL4 (MIP1b) secreted by hASC / GDNF secreted by hASC / CCL7 (MCP-3) secreted by hASC / IL-10 secreted by hASC / CCL8 (MCP-2) secreted by hASC / IL-13 secreted by hASC / CCL17 (TARC) secreted by hASC / IL-1α secreted by hASC / CCL18 (PARC) secreted by hASC / IL-1β secreted by hASC / CCL20 (MIP3a) secreted by hASC / CCL24 (Eotaxin-2) secreted by hASC / IL-12 p70 secreted by hASC / CCL26 (Eotaxin-3) secreted by hASC / IL-15 secreted by hASC / G-CSF secreted by hASC / IGF-1 secreted by hASC / M-CSF secreted by hASC / IGFBP-1 secreted by hASC / GM-CSF secreted by hASC / IGFBP-3 secreted by hASC / TNF-β secreted by hASC / Onc M secreted by hASC / VEGF secreted by hASC / CXCL5 (ENA-78) secreted by hASC / MIF secreted by hASC / CCL11 (Eotaxin) secreted by hASC / IL-5 secreted by hASC / TGF-β1 secreted by hASC: ↑: Increase or decrease of cytokines levels are referred to the levels secreted by cells transduced with the control vector Lt.eGFP; ↓: Increase or decrease of cytokines levels are referred to the levels secreted by cells transduced with the control vector Lt.eGFP; UC: unchanged levels with respect to cells transduced with the control vector Lt.eGFP; Abs: absent in mock transducer cells control; Abs: absent in mock transducer cells control
Procedure: Furthermore, the effect of TβRII-SE recombinant isoform was measured on a panel of 80 cytokines secreted by hASCs cells (FIG. 16). Cells were transduced with either control Lt-GFP, the TGF-β1 inhibitor Lt. TβRII-DN, or Lt-TβRII-SE and incubated in the presence or absence of exogenous TGF-β1. Collected supernatants were used to analyze the cytokines in a Cytokine Array G5 (Raybiotech, Inc. Norcross, USA).
Increase or decrease of cytokines levels are referred to the levels secreted by cells transduced with the control vector Lt.eGFP either in the presence (paracrine) or absence (autocrine) of exogenous TGF-β1. UC: unchanged levels with respect to cells transduced with the control vector Lt.eGFP. Abs: absent in mock transducer cells control. Dark grey boxes: decreased to undetected levels or absent in the supernatant of cells transduced with control vector Lt.eGFP.
A cytokine/chemokine array kit G5 (Ray Biotech Inc., Norcross, Ga.) was used to detect a panel of 80 secreted cytokines as recommended by the manufacturer. hASCs P7 untransduced or transduced with lentiviral vectors were grown for 72 h in a medium supplemented with 0.1% BSA. Supernatants were collected, filtered and frozen after collection. For densitometry analysis of the arrays, Typhoon 9410 Variable mode Imager (GE Healthcare Life Sciences) was used, and signal intensity values were measured using the Image analysis software ImageQuant TL 7.0 (GE Healthcare Life Sciences). Microarray data were analyzed with RayBio® Antibody Array Analysis Tool. Good data quality and adequate normalization were ensured using internal control normalization without background. Any ≥1.5-fold increase or ≤0.65-fold decrease in signal intensity for a single analyte between samples or groups may be considered a measurable and significant difference in expression, provided that both sets of signals are well above background (Mean background+3 standard deviations, accuracy≈99%).

[1] = Autocrine TGF-β1 (no exogenous TGF-β1), vs Lt.eGFP control
[2] = Paracrine TGF-β1 (3 pg/μl), vs Lt.eGFP control

B1: TβRII-SE: 80 amino acid soluble endogenous isoform of human TGF-β receptor II lacking the transmembrane domain, SEQ ID No. 2 (protein, listed as Homo sapiens)
chain: MGRGLLRGLWPLHIVLWTRIASTIPPHVQKSVNNDMIVTDNNGAVKFPQLCKFCDVRFSTCDNQKSCFSKVHYEGKKKAW
ASC, high TGF-β1 concentration, vs Lt.eGFP-transduced control cells
  OPG secretion: dramatic drop
[1]
  Angiogenin secreted by hASC: UC
  BDNF secreted by hASC: UC
  CCL1 (I-309) secreted by hASC: UC
  CCL2 (MCP-1) secreted by hASC: UC
  CCL4 (MIP1b) secreted by hASC: UC
  CCL7 (MCP-3) secreted by hASC: UC
  CCL8 (MCP-2) secreted by hASC: ↑
  CCL17 (TARC) secreted by hASC: UC
  CCL18 (PARC) secreted by hASC: ↓
  CCL20 (MIP3a) secreted by hASC: abs
  CCL24 (Eotaxin-2) secreted by hASC: ↓
  CCL26 (Eotaxin-3) secreted by hASC: abs
  CXCL1 (GROα) secreted by hASC: UC
  CXCL6 (GCP-2) secreted by hASC: UC
  CXCL9 (MIG) secreted by hASC: UC
  CXCL10 (IP-10) secreted by hASC: UC
  CXCL12 (SDF-1) secreted by hASC: UC
  CXCL13 (BLC) secreted by hASC: abs
  EGF secreted by hASC: abs
  FGF-7 secreted by hASC: ↓
  FGF-9 secreted by hASC: UC
  FLT3-L secreted by hASC: ↓
  G-CSF secreted by hASC: ↓
  GDNF secreted by hASC: UC
  GM-CSF secreted by hASC: ↑
  GRO secreted by hASC: UC
  IGF-1 secreted by hASC: ↓
  IGFBP-1 secreted by hASC: UC
  IGFBP-3 secreted by hASC: ↓
  IGFBP-4 secreted by hASC: abs
  IL-1α secreted by hASC: ↓
  IL-1β secreted by hASC: abs
  IL-2 secreted by hASC: UC
  IL-3 secreted by hASC: UC
  IL-6* secreted by hASC: UC
  IL-7 secreted by hASC: ↓
  IL-10 secreted by hASC: UC
  IL-12 p70 secreted by hASC: UC
  IL-13 secreted by hASC: ↓
  IL-15 secreted by hASC: abs
  INF-γ secreted by hASC: ↓
  LIF secreted by hASC: UC
  LIGHT secreted by hASC: abs
  Leptin secreted by hASC: ↓
  M-CSF secreted by hASC: UC
  NT-3 secreted by hASC: UC
  NT-4 secreted by hASC: UC
  Oncostatin M secreted by hASC: ↓
  Osteopontin secreted by hASC: abs
  Osteoprotegerin secreted by hASC: UC
  PIGF secreted by hASC: ↓
  SCF secreted by hASC: abs
  TIMP-1 secreted by hASC: UC
  TIMP-2 secreted by hASC: UC
  TNF-α secreted by hASC: ↓
[2]
  Angiogenin secreted by hASC: UC
  BDNF secreted by hASC: Abs
  CCL1 (I-309) secreted by hASC: abs
  CCL2 (MCP-1) secreted by hASC: UC
  CCL4 (MIP1b) secreted by hASC: abs
  CCL8 (MCP-2) secreted by hASC: UC
  CCL11 (Eotaxin) secreted by hASC: UC
  CCL17 (TARC) secreted by hASC: UC
  CCL20 (MIP3a) secreted by hASC: UC
  CCL24 (Eotaxin-2) secreted by hASC: abs
  CCL26 (Eotaxin-3) secreted by hASC: abs
  CXCL1 (GROα) secreted by hASC: abs
  CXCL5 (ENA-78) secreted by hASC: UC
  CXCL6 (GCP-2) secreted by hASC: ↓
  CXCL9 (MIG) secreted by hASC: ↓
  CXCL10 (IP-10) secreted by hASC: ↓
  CXCL12 (SDF-1) secreted by hASC: abs
  CXCL13 (BLC) secreted by hASC: ↓
  EGF secreted by hASC: ↓
  FGF-7 secreted by hASC: Abs
  FGF-9 secreted by hASC: UC
  FLT3-L secreted by hASC: UC
  G-CSF secreted by hASC: ↓
  GDNF secreted by hASC: Abs
  GM-CSF secreted by hASC: ↓
  GRO secreted by hASC: UC
  IGF-1 secreted by hASC: Abs
  IGFBP-1 secreted by hASC: Abs
  IGFBP-3 secreted by hASC: ↓
  IGFBP-4 secreted by hASC: ↑
  IL-1α secreted by hASC: ↓
  IL-1β secreted by hASC: UC
  IL-2 secreted by hASC: Abs
  IL-3 secreted by hASC: ↓
  IL-5 secreted by hASC: ↓
  IL-6* secreted by hASC: UC
  IL-7 secreted by hASC: ↓
  IL-10 secreted by hASC: ↓
  IL-12 p70 secreted by hASC: ↓
  IL-13 secreted by hASC: ↓
  IL-15 secreted by hASC: ↓
  INF-γ secreted by hASC: ↓
  LIF secreted by hASC: UC
  LIGHT secreted by hASC: ↓
  M-CSF secreted by hASC: abs
  MIF secreted by hASC: UC
  NT-3 secreted by hASC: ↓
  NT-4 secreted by hASC: Abs
  Onc M secreted by hASC: abs
  Osteopontin secreted by hASC: ↓
  PIGF secreted by hASC: ↓
  SCF secreted by hASC: UC
  TGF-β1 secreted by hASC: UC
  TIMP-1 secreted by hASC: UC
  TNF-α secreted by hASC: ↓
  TNF-β secreted by hASC: ↓
  VEGF secreted by hASC: UC
Absence of exogenous TGF-β1
  HGF secretion upregulation: 7.65 times
Presence of exogenous TGF-β1
  HGF secretion upregulation: 4.16 times
